Assay [1] addresses T1, human ASGR-1 (wild type) (human, UniProt P07306 1-291).
T1 construct: also called wt ASGR1; huASGR-1
T1 sequence: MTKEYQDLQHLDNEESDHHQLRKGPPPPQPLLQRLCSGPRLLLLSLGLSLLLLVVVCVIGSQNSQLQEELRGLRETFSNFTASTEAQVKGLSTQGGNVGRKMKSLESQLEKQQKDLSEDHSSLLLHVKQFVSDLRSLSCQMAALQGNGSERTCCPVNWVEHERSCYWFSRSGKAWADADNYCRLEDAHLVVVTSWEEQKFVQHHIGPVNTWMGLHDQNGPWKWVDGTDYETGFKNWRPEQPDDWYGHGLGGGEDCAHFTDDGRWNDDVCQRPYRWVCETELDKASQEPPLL
Kind of assay: flow cytometry, CHO-S:huASGR-1 cells, 11-point titration. On the procedure:
CHO—S stable high-expressing cell line were developed for both human ASGR-1 as well as mouse ASGR-1. A typical 384 well plate multiplex flow cytometery-based cell binding method is described as followed: Parental CHO—S cells and CHO—S:huASGR-1 cells were respectively labeled using a CellTrace CFSE Cell Proliferation Kit (ThermoFisher Catalog #C34554) and CellTrace Violet Cell Proliferation Kit (ThermoFisher Catalog#C34557) CHO—S:muASGR-1 were not labeled. 20 ul of cells at 4C were added to duplicate wells of the 384 well plate. The cells were equally mixed from all three cell lines (30K cells/well). Then 20 ul of the ASGR-1 antibodies (either purified from hybridoma supernatants or made recombinantly) were added in an 11-point dose response using a 1:2 fold serial dilution starting at 100 nM. The cells and antibodies were incubated for 30 min at 4C and then spun down and washed twice with FACS buffer containing 1 mM CaCl2. 30 ul of anti-hulgG-APC secondary antibodies were then added at a 1:1000 dilution) for 30 min at 4C and then washed once with the same buffer. 60 ul of PI (1:1000) was added and then the cells were read by a core flow cytometry facility. The cells were gated first for live cells, then for single cells and finally for the cell dyes to separate the mixed cells into the three different cell populations. Histograms of signal vs count representing the binding profile of each antibody at each antibody concentration were automatically analyzed for the median of the binding signal and then a binding graph was made with log 10 antibody concentration in nM on the X axis with […] from the duplicate wells on the Y-axis. The binding curves were fit with a standard four parameter sigmoidal binding curve and EC50's reported for all graphs with full curves.
For orientation: Flow cytometry measures light scatter and fluorescence of single cells or particles in a stream.

Assay [2] addresses T1, human ASGR-1 (wild type). The experiment in a line: FACS ratio: 65C12 geomean / this mAb geomean. An outline of the steps:
(§1)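 CHO-S cells transiently expressing wild-type or point-mutant hASGR-1 were stained with antibody at 5 ug/ml for 1 h at 4 °C. Bound antibody was detected by Fc-specific Alexa 647 secondary plus 7-AAD and read by flow cytometry. Ratio is 65C12 geomean divided by test mAb geomean, normalizing for expression.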

Assay [3] has as its target T2, human ASGR-1 mutant construct H203 (human, UniProt P07306 1-291).
T2 construct: Arg/Glu scanning: non-arginine residues were changed to arginine; Transiently expressed on CHO-S cells
T2 sequence: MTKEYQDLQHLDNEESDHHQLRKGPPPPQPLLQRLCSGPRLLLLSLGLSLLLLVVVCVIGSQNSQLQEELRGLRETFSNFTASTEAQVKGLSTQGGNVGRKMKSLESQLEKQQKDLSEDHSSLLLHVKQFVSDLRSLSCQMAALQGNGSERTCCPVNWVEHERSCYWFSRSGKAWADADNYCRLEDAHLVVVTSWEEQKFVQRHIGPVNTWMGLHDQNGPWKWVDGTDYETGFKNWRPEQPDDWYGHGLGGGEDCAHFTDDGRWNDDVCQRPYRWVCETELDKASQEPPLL
The experiment in a line: FACS ratio: 65C12 geomean / this mAb geomean. The method in brief: as §1

B1: 184E7 (antibody, V domains shown)
VH: QVQLVQSGAEVKTPGASVKVSCRASGYTFTSYNMHWVRQVPGQGLEWMGWINPNNGGSNYTQKFQGRVTMTRDTSISTAYMELSRLRSDDTAVYYCARKFGDWGQGTLVTVSS
VL: DIQMTQSPSSRSASIGERVTITCRASQGISNYLAWIQQKPGTAPKSLIYAASSLQSGVSSRFSGSGFGTDFTITISSVQREDFATYYCQQYNGYPFTFGHGTKVDIK
notes: mAb
Turning to B1, in the assay with human ASGR-1 (wild type) [1], it took 1 nM to reach a half-maximal effect (EC50). Also, the entries for the “Expression Normalization to mAb 65C12” value (with human ASGR-1 (wild type) [2]; in assay [3]) were 1.31 and 1.4, respectively.

B2: 194A4 (antibody, V domains shown)
VH: QVQLVQSGTEVKKPGASLKVSCKASGYTFTVYYLNWVRQAPGQGLEWMGWINPNSGGTNYAQKFQGRVTMTRDTSISTAYMELSRLRSDDTAVYYCARGYDILTGWGQGTLVTVSS
VL: EIVLTQSPGTLSLSPGERATLSCRASRGVSNIYLAWYQQKPGQAPRLLIYGASNRATGIPDRFSGSGSGTDFTLTISRLEPEDFAVYYCQHNDYSMFTFGPGTKVDIK
notes: mAb
Turning to B2, the EC50 (as a rule, the concentration at which the effect is half-maximal) in the assay with human ASGR-1 (wild type) [1] was 25 nM. The “Expression Normalization to mAb 65C12” value was 3.44 with human ASGR-1 (wild type) [2] and 2.12 in assay [3].

B3: 29H8 (antibody, V domains shown)
VH: QVQLVQSGAEVQKPGASVKVSCKASGYTFTNYDINWVRQATGQGLEWMGWMNPNSGNTGYAQRFQGRVTMTRNTSISAAYMELSSLRSEDTAVYYCASSSGWYYFDYWGQGTLVTVSS
VL: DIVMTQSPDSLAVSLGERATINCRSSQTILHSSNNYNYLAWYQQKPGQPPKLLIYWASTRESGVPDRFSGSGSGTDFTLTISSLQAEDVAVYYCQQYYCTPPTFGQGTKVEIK
notes: mAb
B3 displayed an EC50 in the assay with human ASGR-1 (wild type) [1] of 1.9 nM. The “Expression Normalization to mAb 65C12” value with human ASGR-1 (wild type) [2] came out at 1.37; in assay [3], 1.95.

B4: 25A4 (antibody, V domains shown)
VH: QVLLVQSGAEVKRPGASVKVSCKASGYTFTNYDINWVRQATGQGLEWMGWMYPNSGNTGYAQKFQGRVTMTRNTSISTAYMELSSLRSEDTAVYYCASSSGWYYFDYWGQGTLVTVSS
VL: DIVMTQFPDSLAVSLGERATIKCKSSQSVLYSSHNNNYLAWYQQKPGQPPKLLLYWASTRESGVPDRFSGSGSGTEFTLTISSLEAEDVAVYYCQQYYSTPPTFGQGTKVEIK
notes: mAb
In the assay with human ASGR-1 (wild type) [1], B4 gave an EC50 of 1.6 nM. The “Expression Normalization to mAb 65C12” value in the assay with human ASGR-1 (wild type) [2] is 1.01; in assay [3], 1.29.

B5: 190F8 (antibody, V domains shown)
VH: QVQLVESGGGVVQPGRSLRLSCAASGFTFSTYGMHWVRQAPGKGLEWVAVIWYDGSNKNYADSVKGRFTISRDNSKNTLYLQMNSLRAEDTAVYYCARDQGVGYDGLDVWGQGTTVTVSS
VL: DIQMTQSPSSLSASVGDRVTITCRTSQGIGNYLAWFQQKPGKAPKSLLYKASSLQSGVPSKFSGSGSGTDFTLTISSLQPEDFATYYCQQYMTYPLTFGGGTKVEIK
notes: mAb
In turn, B5 came in with an EC50 with human ASGR-1 (wild type) [1] of 9 nM. Moreover, the “Expression Normalization to mAb 65C12” value was 1.54 with human ASGR-1 (wild type) [2] and 1.71 in assay [3].

B6: 194C1 (antibody, V domains shown)
VH: QVQLVESGGGVVQPGRSLRLSCAASGFTFSSYGMHWVRQAPGKGLEWVAVIWYDGSNEHYADSVKGRFTISRDNSKNTLYLQMNSLRAEDTAVYYCARNRGVGYYGLDVWGQGTTVTVSS
VL: DIQMTQSPSSLSASVGDRVTITCRASQGISNYLAWFQQKPGKAPKSLIYAASSLQSGVPSKFSGSGSGTDFTLTISSLQPEDFATYYCLHYLTYPLTFGGGTKVEIK
notes: mAb
For the molecule B6, the midpoint of the response with human ASGR-1 (wild type) [1], the EC50, lay at 0.11 nM. The “Expression Normalization to mAb 65C12” value with human ASGR-1 (wild type) [2] is 2.69; in assay [3], 2.33.

B7: 198G3 (antibody, V domains shown)
VH: QVQLVESGGGVVQPGRSLKLSCAASGFTFSTYGMHWVRQAPGKGLEWVAVIWYDGTNKNYADSVKGRFTISRDNSKNTLCLQMNSLRAEDTAVYYCARDQGVGYDGLDVWGQGTTVTVSS
VL: DIQMAQSPSSLSASVGDRVTITCRTSQGIGKYLAWFQQKPGKAPKSLLYKASSLQGGVPSKFSGSGSGTDFTLTISSLQPEDFATYYCQQYMTYPLTFGGGTKVEIK
notes: mAb
The molecule B7 displayed an EC50 with human ASGR-1 (wild type) [1] of 0.21 nM. Moreover, the results for the “Expression Normalization to mAb 65C12” value (with human ASGR-1 (wild type) [2]; in assay [3]) were 2.61 and 1.96, respectively.

B8: 191G10 (antibody, V domains shown)
VH: QVQLVESGGGVVQPGRSLRLSCAASGFTFSSYGMHWVRQAPGKGLEWVAVIWYDGSNKNYADSVKGRFTISRDNSKNTLYLQMNSLRAEDTAVYYCARDQGVGYDGLDVWGQGTTVTVSS
VL: DIQMTQSPSSLSASVGDRVTITCRTSQGIGKYLAWFQQKPGKAPKSLLYKVSSLQSGVPSKFSGSGSGTDFTLTISSLQPEDFATYYCQQYMTYPLTFGGGTKVEIK
notes: mAb
Regarding B8, a half-maximal response with human ASGR-1 (wild type) [1] (EC50) required 0.31 nM. The entries for the “Expression Normalization to mAb 65C12” value (in the assay with human ASGR-1 (wild type) [2]; in assay [3]) were 1.66 and 1.51, respectively.

B9: 191G1 (antibody, V domains shown)
VH: QVQLVESGGGVVQPGRSLRLSCAASGFTFSSYGMHWVRQAPGKGLEWVAVIWYDGSNEHYADSVKGRFTISRDNSKNTLYLQMNSLRAEDTAVYYCARDRGVGYYGLDVWGQGTTVTVSS
VL: DIQMTQSPSSLSASVGDRVTITCRASQGISNYLAWFQQKPGKAPKSLIYAASSLQSGVPSKFSGSGSGTDFTLTISSLQPEDFATYYCQHYLTYPLTFGGGTKVEIK
notes: mAb
In the assay with human ASGR-1 (wild type) [1], B9 showed an EC50 of 0.16 nM. Further, the “Expression Normalization to mAb 65C12” value in the assay with human ASGR-1 (wild type) [2] was 2.22; in assay [3], 2.37.

B10: 6G7 (antibody, V domains shown)
VH: QVQLVESGGGVVQPGRSLRLSCAASGFTFSSYGMHWVRQTPGKGLEWVAIISYVGKNKYYADSVKGRFTISRDNSKNTLYLQMNSLRAEDTAVYYCARRGNSYGGYGMDVWGQGTTVTVSS
VL: DIQMTQSPSSRSASVGDRVTITCQASQDISNYLNWCQQKPGKALKLLIYDASTLETGVPSRFSGSGSGTDFTFTISSVQPEDIATYYCQQYDNVPITFGQGTRLEIK
notes: mAb
B10 had an EC50 in the assay with human ASGR-1 (wild type) [1] of 0.6 nM. Moreover, the results for the “Expression Normalization to mAb 65C12” value (in the assay with human ASGR-1 (wild type) [2]; in assay [3]) were 1.45 and 1.71, respectively.

B11: 72G9 (antibody, V domains shown)
VH: EVQLVESGGGLVKPGGSLRLSCAASGFTFSSYSMNWVRQAPGKGLEWVSSISGSSSYIYYADSVKGRFTISRDNAKNSLYLQMNSLRAEDTAVYFCARGGSRGFDPWGQGTLVTVSS
VL: DIQMTQSPSSLSASVGDRVTITCRASQSITSYLNWYQQKPGKAPKLLIYTASSLQSGVPSRFSGSGSGTDFTLTISSLQPEDFATYYCQQSHSFPFTFGPGTKVDIK
notes: mAb
B11 yielded an EC50 with human ASGR-1 (wild type) [1] of 0.41 nM. Besides, the “Expression Normalization to mAb 65C12” value is 1.54 with human ASGR-1 (wild type) [2] and 1.37 in assay [3].

B12: 48B12 (antibody, V domains shown)
VH: EVQLLESGGGLVQPGGSLRLSCAASGFTFSSYAMNWVRQAPGKGLEWVSAISGRGGNTFYADSVKGRFTISRDNSKNTLYLQMNSLRAEDTAVYYCAKRETYNWNYEGFDYWGQGTLVTVSS
VL: SYELTQPPSVSVSPGQTARITCSGDALPKKYAYWYQQKSGQAPVLVIYEDSKRPSGIPERFSGSSSGTMATLTISGAQVEDEADYYCNSTDSSGNHVVFGGGTKLTVL
notes: mAb
In the assay with human ASGR-1 (wild type) [1], B12 showed an EC50 of 38 nM. Besides, the “Expression Normalization to mAb 65C12” value was 1.07 with human ASGR-1 (wild type) [2] and 1.26 in assay [3].

B13: 22G5 (antibody, V domains shown)
VH: EVQLLESGGGLVQPGGSLRLSCAASGFTFSSYAMNWVRQAPGMGLEWVSVISRSGGYTYYADSVKGRFTISRDNSKNTLYLQMNSLRAEDTAVYYCASRLAVAGSEAFDIWGQGTLVTVSS
VL: DIQMTQSPSSLSASVGDRVTITCRASQNISSYLNWYQQKQGKAPKLLIYAASSLQNGVPSRFSGRGSGTDFTLTISSLQPEDFATYYCQQSYRTPLFTFGPGTKVDFK
notes: mAb
Consider B13, for which the concentration for a half-maximal effect (EC50) with human ASGR-1 (wild type) [1] was found to be 7.2 nM. For the same molecule, the “Expression Normalization to mAb 65C12” value with human ASGR-1 (wild type) [2] was found to be 1.24; in assay [3], 1.71.

For the origin of these results see patent US20190248902A1 (published 2019).
